One block for each binder: values may come before it.
B1: pregnancy-associated plasma protein A (PAPP-A), endogenous, from pregnant human plasma (enzyme, human (endogenous in pregnant plasma), UniProt Q13219 82-1627, looked up)
chain: EARGATEEPSPPSRALYFSGRGEQLRLRADLELPRDAFTLQVWLRAEGGQRSPAVITGLYDKCSYISRDRGWVVGIHTISDQDNKDPRYFFSLKTDRARQVTTINAHRSYLPGQWVYLAATYDGQFMKLYVNGAQVATSGEQVGGIFSPLTQKCKVLMLGGSALNHNYRGYIEHFSLWKVARTQREILSDMETHGAHTALPQLLLQENWDNVKHAWSPMKDGSSPKVEFSNAHGFLLDTSLEPPLCGQTLCDNTEVIASYNQLSSFRQPKVVRYRVVNLYEDDHKNPTVTREQVDFQHHQLAEAFKQYNISWELDVLEVSNSSLRRRLILANCDISKIGDENCDPECNHTLTGHDGGDCRHLRHPAFVKKQHNGVCDMDCNYERFNFDGGECCDPEITNVTQTCFDPDSPHRAYLDVNELKNILKLDGSTHLNIFFAKSSEEELAGVATWPWDKEALMHLGGIVLNPSFYGMPGHTHTMIHEIGHSLGLYHVFRGISEIQSCSDPCMETEPSFETGDLCNDTNPAPKHKSCGDPGPGNDTCGFHSFFNTPYNNFMSYADDDCTDSFTPNQVARMHCYLDLVYQGWQPSRKPAPVALAPQVLGHTTDSVTLEWFPPIDGHFFERELGSACHLCLEGRILVQYASNASSPMPCSPSGHWSPREAEGHPDVEQPCKSSVRTWSPNSAVNPHTVPPACPEPQGCYLELEFLYPLVPESLTIWVTFVSTDWDSSGAVNDIKLLAVSGKNISLGPQNVFCDVPLTIRLWDVGEEVYGIQIYTLDEHLEIDAAMLTSTADTPLCLQCKPLKYKVVRDPPLQMDVASILHLNRKFVDMDLNLGSVYQYWVITISGTEESEPSPAVTYIHGSGYCGDGIIQKDQGEQCDDMNKINGDGCSLFCRQEVSFNCIDEPSRCYFHDGDGVCEEFEQKTSIKDCGVYTPQGFLDQWASNASVSHQDQQCPGWVIIGQPAASQVCRTKVIDLSEGISQHAWYPCTISYPYSQLAQTTFWLRAYFSQPMVAAAVIVHLVTDGTYYGDQKQETISVQLLDTKDQSHDLGLHVLSCRNNPLIIPVVHDLSQPFYHSQAVRVSFSSPLVAISGVALRSFDNFDPVTLSSCQRGETYSPAEQSCVHFACEKTDCPELAVENASLNCSSSDRYHGAQCTVSCRTGYVLQIRRDDELIKSQTGPSVTVTCTEGKWNKQVACEPVDCSIPDHHQVYAASFSCPEGTTFGSQCSFQCRHPAQLKGNNSLLTCMEDGLWSFPEALCELMCLAPPPVPNADLQTARCRENKHKVGSFCKYKCKPGYHVPGSSRKSKKRAFKTQCTQDGSWQEGACVPVTCDPPPPKFHGLYQCTNGFQFNSECRIKCEDSDASQGLGSNVIHCRKDGTWNGSFHVCQEMQGQCSVPNELNSNLKLQCPDGYAIGSECATSCLDHNSESIILPMNVTVRDIPHWLNPTRVERVVCTAGLKWYPHPALIHCVKGCEPFMGDNYCDAINNRAFCNYDGGDCCTSTVKTKKVTPFPMSCDLQGDCACRDPQAQEHSRKDLRGYSHG
modifications: glycosylation sites assigned in the density (positions not given)
notes: pregnancy-associated plasma protein A, human, full-length mature PAPP-A, Arg1-Gly1547; numbers count on: the mature protein; source: purified from pregnant human plasma as the PAPP-A·proMBP complex (PEG6000, SOURCE-15Q, MonoS, Superose-6)

Key:
[1] = target: the molecule itself; assay: cryo-EM structure; PAPP-A·proMBP complex purified from pregnant human plasma, 0.2 mg/mL, in PBS pH 7.4; 2:2 map with C2 symmetry and half map after symmetry expansion
[2] = target: B1; assay: as above; conditions: both partners purified
[3] = target: purified recombinant PAPP-A free of STC2 (apo PAPP-A) (human, UniProt Q13219 82-1627, fluorescently labeled with Protein Labeling Kit RED-NHS (in MST)); assay: MST; RED-NHS labeled PAPP-A (24 nM, mixed with an equal volume of ligand), ligand serially diluted; PBS with 0.05% Tween-20, room temperature, 30 min; 1:1 binding mode; n = 3; conditions: both partners purified

Binder: B1
stoichiometry N [1]: 2

binding result [2]: binds
B2: proform of eosinophil major basic protein (proMBP), endogenous, from pregnant human plasma (natural protein, human (endogenous in pregnant plasma), UniProt P13727 17-222, looked up)
chain: LHLRSETSTFETPLGAKTLPEDEETPEQEMEETPCRELEEEEEWGSGSEDASKKDGAVESISVPDMVDKNLTCPEEEDTVKVVGIPGCQTCRYLLVRSLQTFSQAWFTCRRCYRGNLVSIHNFNINYRIQCSVSALNQGQVWIGGRITGSGRCRRFQWVDGSRWNFAYWAAHQPWSRGGHCVALCTRGGHWRRAHCLRRLPFICSY
notes: proform of eosinophil major basic protein, human, encoded by PRG2; only residues 88-222 traced in the map, residues 1-87 invisible; Secreted proform; the signal peptide should be absent (surmise); Model built on PDB 1H8U; also called PM; PRG2; source: purified from pregnant human plasma as the PAPP-A·proMBP complex (PEG6000, SOURCE-15Q, MonoS, Superose-6)

Kd [3]: ~6.15 µM
B3: recombinant proMBP (modulator protein) (natural protein, UniProt P13727 17-222, looked up)
chain: LHLRSETSTFETPLGAKTLPEDEETPEQEMEETPCRELEEEEEWGSGSEDASKKDGAVESISVPDMVDKNLTCPEEEDTVKVVGIPGCQTCRYLLVRSLQTFSQAWFTCRRCYRGNLVSIHNFNINYRIQCSVSALNQGQVWIGGRITGSGRCRRFQWVDGSRWNFAYWAAHQPWSRGGHCVALCTRGGHWRRAHCLRRLPFICSY
notes: proform of eosinophil major basic protein, encoded by PRG2; construct not described; source: co-expressed with PAPP-A for the cleavage assay

From paper PMC9780223, “Structural insights into the covalent regulation of PAPP-A activity by proMBP and STC2” (Cell Discovery, 2022)
